Experimental findings from article PMC6090299, “Quantitative Analysis of Interaction Between CADM1 and Its Binding Cell-Surface Proteins Using Surface Plasmon Resonance Imaging” (Frontiers in Cell and Developmental Biology, 2018) are described below.

T1: CADM4-Fc (human (by the printed RefSeq entry))
T1 sequence (Q8NFZ8 whole entry, looked up): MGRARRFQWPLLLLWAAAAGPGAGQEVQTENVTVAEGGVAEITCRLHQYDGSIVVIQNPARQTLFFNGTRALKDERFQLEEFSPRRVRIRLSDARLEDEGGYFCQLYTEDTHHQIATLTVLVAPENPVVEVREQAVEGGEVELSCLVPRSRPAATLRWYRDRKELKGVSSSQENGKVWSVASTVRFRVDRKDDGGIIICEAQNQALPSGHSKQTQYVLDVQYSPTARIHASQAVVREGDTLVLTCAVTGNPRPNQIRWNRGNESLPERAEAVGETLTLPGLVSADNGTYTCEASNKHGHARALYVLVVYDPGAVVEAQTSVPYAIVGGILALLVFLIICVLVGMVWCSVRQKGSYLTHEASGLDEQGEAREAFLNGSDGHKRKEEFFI

T2: CADM2-Fc (human (by the printed RefSeq entry), UniProt Q8N3J6-1 25-367)
T2 construct: signal peptide in the construct; CADM2 extracellular domain, NP_001161146, 1-367 a.a; Human IgG2-Fc fragment from pFUSE-hIgG2-Fc1; source: FreeStyle 293-F cells, transiently transfected, purified from the supernatant (Protein G Sepharose); not shown: Fc (human IgG2), C-terminal, kept
T2 sequence (looked up): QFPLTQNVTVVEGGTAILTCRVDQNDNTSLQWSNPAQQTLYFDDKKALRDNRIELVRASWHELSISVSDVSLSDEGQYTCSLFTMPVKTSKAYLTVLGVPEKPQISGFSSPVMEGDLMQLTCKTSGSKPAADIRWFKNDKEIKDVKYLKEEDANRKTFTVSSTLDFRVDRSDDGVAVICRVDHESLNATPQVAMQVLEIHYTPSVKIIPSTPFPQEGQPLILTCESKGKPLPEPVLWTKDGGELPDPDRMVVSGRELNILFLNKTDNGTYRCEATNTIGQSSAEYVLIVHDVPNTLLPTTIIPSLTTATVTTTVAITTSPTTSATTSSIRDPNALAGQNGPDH

B1: CADM1-Fc (Fc fusion, human (by the printed RefSeq entry), UniProt Q9BY67-1 45-374, looked up)
chain: QNLFTKDVTVIEGEVATISCQVNKSDDSVIQLLNPNRQTIYFRDFRPLKDSRFQLLNFSSSELKVSLTNVSISDEGRYFCQLYTDPPQESYTTITVLVPPRNLMIDIQKDTAVEGEEIEVNCTAMASKPATTIRWFKGNTELKGKSEVEEWSDMYTVTSQLMLKVHKEDDGVPVICQVEHPAVTGNLQTQRYLEVQYKPQVHIQMTYPLQGLTREGDALELTCEAIGKPQPVMVTWVRVDDEMPQHAVLSGPNLFINNLNKTDNGTYRCEASNIVGKAHSDYMLYVYDPPTTIPPPTTTTTTTTTTTTTILTIITDSRAGEEGSIRAVDH
notes: signal peptide in the construct; CADM1 extracellular domain, NP_055148, 1-374 a.a; Human IgG2-Fc fragment from pFUSE-hIgG2-Fc1; Glycosylated; also called cell adhesion molecule 1 extracellular domain fused with Fc; source: FreeStyle 293-F cells, transiently transfected, purified from the supernatant (Protein G Sepharose); not shown: Fc (human IgG2), C-terminal, kept
B2: CADM3-Fc (Fc fusion, human (by the printed RefSeq entry), UniProt Q8N126-1 25-330, looked up)
chain: NLSQDDSQPWTSDETVVAGGTVVLKCQVKDHEDSSLQWSNPAQQTLYFGEKRALRDNRIQLVTSTPHELSISISNVALADEGEYTCSIFTMPVRTAKSLVTVLGIPQKPIITGYKSSLREKDTATLNCQSSGSKPAARLTWRKGDQELHGEPTRIQEDPNGKTFTVSSSVTFQVTREDDGASIVCSVNHESLKGADRSTSQRIEVLYTPTAMIRPDPPHPREGQKLLLHCEGRGNPVPQQYLWEKEGSVPPLKMTQESALIFPFLNKSDSGTYGCTATSNMGSYKAYYTLNVNDPSPVPSSSSTYH
notes: signal peptide in the construct; CADM3 extracellular domain, NP_001120645, 1-330 a.a; Human IgG2-Fc fragment from pFUSE-hIgG2-Fc1; source: FreeStyle 293-F cells, transiently transfected, purified from the supernatant (Protein G Sepharose); not shown: Fc (human IgG2), C-terminal, kept

The target in data set [1] is T1, CADM4-Fc (human (by the printed RefSeq entry)). The experiment in a line: SPR; SPR imaging (OpenPlex); the 10 IgSF-Fc proteins (7-24 μM) spotted in hexaplicate and immobilised by amine coupling; 2.4 μM CADM1-Fc injected for 4 min; 25°C; PBS with 0.2% BSA and 0.02% Tween20, 50 μL/min; signal of normal human IgG subtracted.
Data set [2] concerns the molecule itself. Described as above.
The target in data set [3] is T2, CADM2-Fc. Described as above. To be noted: both partners purified.
Data set [4] deals with the molecule itself. The experiment in a line: SPR; SPR imaging (OpenPlex); the 10 IgSF-Fc proteins spotted and immobilised by amine coupling; CADM2-Fc, CADM3-Fc or CADM4-Fc injected as analyte; 25°C; PBS with 0.2% BSA and 0.02% Tween20, 50 μL/min. On the technique in general: Surface plasmon resonance follows binding to a sensor surface in real time, without labels.
In data set [5] the target is B1. The data set can be described thus: SPR; SPR imaging (OpenPlex); the 10 IgSF-Fc proteins (7-24 μM) spotted in hexaplicate and immobilised by amine coupling; 2.4 μM CADM1-Fc injected for 4 min; 25°C; PBS with 0.2% BSA and 0.02% Tween20, 50 μL/min; signal of normal human IgG subtracted. The conditions noted are these: both partners purified.

In data set [1], B1 came in with a Kd of 193 nM, a koff of 0.019 s⁻¹ and a kon of 99000 M⁻¹ s⁻¹. In data set [2], this molecule registered a Kd of 114 nM, a koff of 0.0073 s⁻¹ and a kon of 64000 M⁻¹ s⁻¹. In data set [3], this molecule yielded a Kd of 86.8 nM, a koff of 0.0064 s⁻¹ and a kon of 74000 M⁻¹ s⁻¹.
For the molecule B2, the binding result in data set [4] is “binds”. In data set [5], this molecule returned a dissociation constant (Kd) of 80.1 nM, a koff of 0.007 s⁻¹ and a kon of 84000 M⁻¹ s⁻¹.

What is called Kd is the free concentration of one partner at which half of the binding sites on the other are occupied at equilibrium, for simple one-to-one binding. Low readings indicate a tighter complex, high ones a looser complex. A word on the koff: it is a measure of how fast the partners let go of each other. A word on the kon: it is the second-order rate constant of association. High values mean fast association, low ones slow association.
